Data published in patent US20240287172A1 (SCIRHOM, published 2024).

T1: human iRhom1, endogenously expressed (human, UniProt Q96CC6 1-855)
T1 construct: also called iRhom1 on RH-30 cells
T1 sequence: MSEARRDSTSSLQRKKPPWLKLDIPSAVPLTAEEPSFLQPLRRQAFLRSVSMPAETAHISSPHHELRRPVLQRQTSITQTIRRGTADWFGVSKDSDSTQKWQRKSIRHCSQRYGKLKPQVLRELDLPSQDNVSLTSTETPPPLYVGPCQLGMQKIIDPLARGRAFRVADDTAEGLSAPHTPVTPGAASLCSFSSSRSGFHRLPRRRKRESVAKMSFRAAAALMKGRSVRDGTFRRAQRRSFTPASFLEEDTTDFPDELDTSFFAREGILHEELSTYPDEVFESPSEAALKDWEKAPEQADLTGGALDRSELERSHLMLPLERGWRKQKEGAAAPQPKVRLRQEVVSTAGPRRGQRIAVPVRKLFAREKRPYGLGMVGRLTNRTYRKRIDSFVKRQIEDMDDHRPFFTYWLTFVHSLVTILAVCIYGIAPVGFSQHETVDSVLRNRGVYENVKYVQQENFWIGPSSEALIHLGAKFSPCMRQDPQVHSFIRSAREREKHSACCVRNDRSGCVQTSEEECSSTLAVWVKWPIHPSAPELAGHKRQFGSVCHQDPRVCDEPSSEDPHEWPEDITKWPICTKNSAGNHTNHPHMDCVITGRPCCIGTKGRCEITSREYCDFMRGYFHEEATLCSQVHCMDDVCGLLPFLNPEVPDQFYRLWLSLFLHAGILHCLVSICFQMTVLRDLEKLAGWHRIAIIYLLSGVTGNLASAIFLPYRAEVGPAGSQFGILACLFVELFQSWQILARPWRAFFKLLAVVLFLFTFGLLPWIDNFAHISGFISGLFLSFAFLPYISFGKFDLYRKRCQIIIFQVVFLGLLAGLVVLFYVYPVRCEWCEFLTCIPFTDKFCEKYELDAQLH

T2: hiR2-FL-L438S-T7 (human, UniProt Q6PJF5 1-856)
T2 sequence: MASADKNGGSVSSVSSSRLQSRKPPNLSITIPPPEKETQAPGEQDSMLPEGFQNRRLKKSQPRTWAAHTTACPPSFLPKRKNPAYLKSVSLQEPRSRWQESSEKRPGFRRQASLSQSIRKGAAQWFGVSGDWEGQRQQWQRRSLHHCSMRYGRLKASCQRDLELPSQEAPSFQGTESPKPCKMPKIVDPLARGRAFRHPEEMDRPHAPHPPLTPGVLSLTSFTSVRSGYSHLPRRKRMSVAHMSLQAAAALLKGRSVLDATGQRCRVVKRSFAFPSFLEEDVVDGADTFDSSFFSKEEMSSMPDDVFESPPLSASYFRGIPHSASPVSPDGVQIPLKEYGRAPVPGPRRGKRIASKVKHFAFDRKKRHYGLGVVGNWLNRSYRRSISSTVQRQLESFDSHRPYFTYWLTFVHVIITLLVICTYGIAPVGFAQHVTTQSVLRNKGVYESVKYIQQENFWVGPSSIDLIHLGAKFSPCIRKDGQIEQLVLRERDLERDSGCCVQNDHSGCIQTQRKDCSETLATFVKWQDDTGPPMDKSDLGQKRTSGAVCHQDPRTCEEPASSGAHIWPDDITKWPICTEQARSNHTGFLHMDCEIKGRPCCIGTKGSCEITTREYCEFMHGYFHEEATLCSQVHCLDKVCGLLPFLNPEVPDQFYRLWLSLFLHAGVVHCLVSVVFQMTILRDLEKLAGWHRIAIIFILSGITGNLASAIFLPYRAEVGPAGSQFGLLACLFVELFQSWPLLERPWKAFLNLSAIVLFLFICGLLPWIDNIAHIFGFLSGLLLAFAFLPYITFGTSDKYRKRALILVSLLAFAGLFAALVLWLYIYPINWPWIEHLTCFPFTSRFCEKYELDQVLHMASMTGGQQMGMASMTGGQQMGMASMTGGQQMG


Experiments:
[1] = molecular target: T1, human iRhom1, endogenously expressed; test: FACS on RH-30 cells (iRhom1-positive, not iRhom2-positive)
hiR2-FL-L438S-T7 = molecular target: T2, hiR2-FL-L438S-T7; test: FACS, MEF-DKO cells, 3 µg/ml

Binder | binding result [1] | loss of binding vs wild type (hiR2-FL-L438S-T7)
antibody 16 (antibody, V domains shown, mouse IgG, kappa light chain; also called clone #16; purified antibody 16) VH: QVTLKESGPGILQPSQTLSLTCSFSGFSLSTFALGVGWIRQPSGRGLEWLAHIWWDDDKYYNPALKSRLTISKDTSKNHVFLKIANVDTADTATYYCARITTYYYGMDYWGQGTSVTVSS VL: DIVLSQSPATLSVTPGDSVSLFCRASQSIGNHLHWYQQESHASPRLLIKYASQSISGIPSRFSGSGSGTDFTLSINSVETEDFGMYFCQQSYNWPLTFGAGTKLELK | no binding (tested: 3 µg/ml) | 
antibody 50 (antibody, V domains shown, mouse IgG, kappa light chain; also called clone #50; purified antibody 50) VH: QVQLQQSGAELVRPGASVKVSCKASGYAFSNYLIEWVKQRPGQGLEWIGVINPGSGFTKYNEKFKGKATLTADKSSSTAYMQLSSLTSEDSAVYFCARGLYRAMDYWGQGTSVTVSS VL: DIQMTQSPASQSASLGESVTITCLASQTIGTWLAWYQQKPGKSPQLLIYAAASLADGVPSRFSGGGSGTKFSFKISSLQAEDFVNYYCQQIYSTPYTFGGGTKLEIK |  | ≥ 30%
